3 molecules from patent US20180371076A1, “MATERNAL TH17 CELLS AND PSYCHIATRIC DISORDERS” (New York University, priority 2017, published 2018) can be followed below.

Test [1] deals with offspring of pregnant mice (MIA mouse model). Description: Ultrasonic vocalization (USV) assay in pups, MIA mouse model. Type of test: in vivo. On the procedure:
Maternal Immune Activation. Mice were mated overnight and females were checked daily for the presence of seminal plugs, noted as embryonic day 0.5 (E0.5). On E12.5, pregnant female mice were weighed and injected with a single dose (20 mg/kg; i.p.) of poly(I:C) (Sigma Aldrich) or PBS vehicle. Each dam was returned to its cage and left undisturbed until the birth of its litter. All pups remained with the mother until weaning on postnatal day 21 (P21), at which time mice were group housed at maximum 5 per cage with same-sex littermates. For the IL-17 cytokine blockade experiment, monoclonal IL-17a blocking antibody (clone 50104; R&D) or isotype control antibody (IgG2a, clone 54447; R&D) was administered 6 h before maternal immune activation (FIG. 2) via i.p. route (500 μg/animal) or 2 days after maternal immune activation (FIG. 5) via i.p. route (500 μg/animal).
Ultrasonic vocalizations. On postnatal day 9, mice were removed from the nest and placed in a 15-cm diameter dish in a sound-attenuated chamber. Mouse ultrasonic vocalizations (USVs) were detected for 3 min using an UltraSoundGateCM16/CMPA microphone (AviSoft) in the chamber under stable temperature and light control, and recorded with SAS Prolab software (AviSoft). For certain USV tests, Ultravox software (Noldus information Technology, USA) was used. An amplitude filter was used to eliminate extraneous peripheral noise (i.e. HVAC). Due to the unreliability of automated USV scoring, all pup USVs were measured and confirmed manually by observers blind to the experimental conditions.
Maternal Immune Activation Mice were mated overnight and females were checked daily for the presence of seminal plugs, noted as embryonic day 0.5 (E0.5). On E12.5, pregnant female mice were weighed and injected with a single dose (20 mg/kg; i.p.) of poly(I:C) (Sigma Aldrich) or PBS vehicle. Each dam was returned to its cage and left undisturbed until the birth of its litter. All pups remained with the mother until weaning on postnatal day 21 (P21), at which time mice were group housed at maximum 5 per cage with same-sex littermates. For the IL-17 cytokine blockade experiment, monoclonal IL-17a blocking antibody (clone 50104; R&D) or isotype control antibody (IgG2a, clone 54447; R&D) were administered 6 h before maternal immune activation via i.p. route (500 μg/animal). For IL-6 cytokine injection into pregnant dams, carrier-free recombinant mouse IL-6 (R&D) was administered as a single dose (10 μg/animal; i.p.). For testing anti-IL17a therapeutic effects, IL-17a blocking antibody or isotype control antibody (as described above) was administered 2 days after maternal immune activation (500 μg/animal; i.p.).
Ultrasonic vocalizations On postnatal day 7-9, both male and female mice were removed from the nest and habituated to the testing room for 15 minutes (separate of dam). After the habituation period, mouse pups were placed in a clean 15 cm glass pyrex high wall dish. Mouse pup ultrasonic vocalizations (USVs) were then detected for 3 min using an UltraSoundGateCM16/CMPA microphone (AviSoft) in the sound attenuation chamber under stable temperature and light control (15 lux), and recorded with SAS Prolab software (AviSoft). USVs were measured between 33-125 kHz. USVs were scored as contiguous if gaps between vocalizations were <0.02 msec. For certain USV tests, Ultravox software (Noldus information Technology, USA) was used. An amplitude filter was used to eliminate extraneous peripheral noise (i.e. HVAC). Due to the unreliability of automated USV scoring, all pup USVs were measured and confirmed manually by observers blind to the experimental conditions.
Intraventricular cytokine injection At E14.5, uterine horns of pregnant mice were exposed by a caudal ventral midline incision (<2 cm). Each uterine horn was exteriorized carefully and each fetus was identified. […]

Test [2] concerns cortex of the fetal brain. Description: Cortical development: SATB2/TBR1/CTIP2 immunohistochemistry of fetal and adult offspring brain. Type of test: in vivo, mouse. The method, then:
Immunohistochemistry. Animals were transcardially perfused with 4% paraformaldehyde in PBS under Ketamine/xylazine anesthesia. The brains were removed and sectioned at 100-μm thickness with a Leica VT1000S vibratome (Leica, USA). Slices were permeabilized with blocking solution containing 0.4% Triton X-100, 2% goat serum, and 1% BSA in PBS for 1 hr at room temperature, and then incubated with anti-TBR1 (ab31940, Abcam), anti-SATB2 (ab51502, Abcam) and anti-CTIP2 (ab18465, Abcam) antibodies overnight at 4° C. The following day, slices were incubated with fluorescently conjugated secondary antibodies (Invitrogen, USA) for 1 h at room temperature, and mounted in vectashield mounting medium with DAPI (Vector laboratories). Images of stained brain slices were acquired using a confocal microscope (LSM710; Carl Zeiss) with a 20× objective lens; all image settings were kept constant.
Intraventricular cytokine injection At E14.5, uterine horns of pregnant mice were exposed by a caudal ventral midline incision (<2 cm). Each uterine horn was exteriorized carefully and each fetus was identified. Recombinant mouse IL-17a cytokine (R&D, 0.6 μL of 2 ng/μL), IL-6 (R&D, 0.6 μL of 10 ng/μL) or saline together with the dye Fast Green (Sigma, 0.3 mg/mL) was injected (3-4 μL) into the third ventricle of each embryo by a pulled micropipette. After injection of all embryos, the uterus was replaced within the abdomen and the cavity was lavaged with warm sterile saline.
Immunohistochemistry Fetal brains of male embryos were dissected and fixed with 4% paraformaldehyde in PBS for 6 h at 4° C. Adult brains of male offspring were perfused and fixed with 4% paraformaldehyde in PBS for overnight at 4° C. The brains were removed and sectioned at 50-μm thickness with a Leica VT1000S vibratome (Leica, USA). Slices were permeabilized with blocking solution containing 0.4% Triton X-100, 2% goat serum, and 1% BSA in PBS for 1 h at room temperature, and then incubated with anti-TBR1 (ab31940, Abcam), anti-SATB2 (ab51502, Abcam), and anti-CTIP2 (ab18465, Abcam) antibodies overnight at 4° C. The following day, slices were incubated with fluorescently conjugated secondary antibodies (Invitrogen, USA) for 1 h at room temperature, and mounted in vectashield mounting medium with DAPI (Vector laboratories). Images of stained brain slices were acquired using a confocal microscope (LSM710; Carl Zeiss) with a 20× objective lens; all image settings were kept constant. Spatial locations of the patches were registered based on their distance from the midline of the brain. These cortical malformations were quantified using cropped images containing the malformations, or the corresponding region in WT brains. The region of interest (300×300 μm^2) was divided into 10 equal laminar blocks representing different depths of the cortical plate. SATB2-, TBR1-, or […] cells were counted using Image J software. Signal intensity in each image was normalized relative to the total signal intensity.

The mark [3] stands for this setting: injection into pregnant WT mothers (10 μg/animal; i.p.).

poly(I:C): the “number of pup USV calls” value in test [1] (poly(I:C)-injected mothers pretreated with control antibody, vs PBS-injected mothers) is “emitted more USV calls”. In addition, in test [2] (MIA (poly(I:C))), the “cortical thickness of the fetal brains at E18.5” value is given as “did not affect cortical thickness”. The “cortical cytoarchitecture at E18.5” value in test [2] (MIA (poly(I:C)) vs PBS) is listed as “patch of disorganized cortical cytoarchitecture”. Also, in test [2] (MIA (poly(I:C)) vs control), the “SATB2 and SATB2/TBR1 expression in fetal brain cortical plates at E14.5 and E18.5” value is given as “abnormal expression”; the “SATB2 expression at E14.5” value is on record as “delayed expression of SATB2”. In test [2] (MIA adult offspring (P60)), the “abnormal expression of SATB2, TBR1 and CTIP2 in adult offspring” value is listed as “maintained”.

B1: recombinant IL-6: carrier-free recombinant mouse IL-6 (R&D) (protein, UniProt P08505 25-211, looked up)
Interleukin-6: FPTSQVRRGDFTEDTTPNRPVYTTSQVGGLITHVLWEIVEMRKELCNGNSDCMNNDDALAENNLKLPEIQRNDGCYQTGYNQEICLLKISSGLLEYHSYLEYMKNNLKDNKKDKARVLQRDTETLIHIFNQEVKDLHKIVLPTPISNALLTDKLESQKEWLRTKTIQFILKSLEEFLKVTLRSTRQT
Regarding B1, the USV phenotype result in test [1] (injection into WT fetal brains at E14.5) was “nor enhanced USV phenotypes were observed”. In addition, in test [1] (setting [3]), the “USV phenotype in offspring” value is listed as “enhanced USV”. In addition, the “cortical phenotype in offspring” value in test [2] (setting [3]) was “sufficient to produce MIA-associated behavioral (enhanced USV) and cortical phenotypes”.

B2: recombinant IL-17a protein: Recombinant mouse IL-17a cytokine (R&D), injected into the fetal brain ventricle (protein, UniProt Q62386 26-158, looked up)
Interleukin-17A: AAIIPQSSACPNTEAKDFLQNVKVNLKVFNSLGAKVSSRRPSDYLNRSTSPWTLHRNEDPDRYPSVIWEAQCRHQRCVNAEGKLDHHMNSVLIQQEILVLKREPESCPFTFRVEKMLVGVGCTCVASIVRQAA
On to B2, for which, in test [1] (injection into brains of fetuses from poly(I:C)-injected IL-6 KO mothers, vs PBS-injected controls), the “pup USVs” value is listed as “increased pup USVs”. Besides, the USV phenotype entry in test [1] (injection into the ventricles of IL-17Ra KO fetuses) was “nor enhanced USV phenotypes were observed”; in test [1] (intra-ventricular injection at E14.5, compared with sham injection) it was “enhanced USV phenotype”. In test [2] (injected into the ventricles of the fetal brain at E14.5 in the absence of MIA), the “cortical organization (SATB2, TBR1) at E18.5” value was “appearance of disorganized cortical patches”. In test [2] (intra-ventricular injection at E14.5), the “thickness of the cortical plate at E18.5” value is on record as “thinned cortical plates at the medial but not lateral part of the brain”.
